The subject of data set [1] is T1, Lys(Dnp)-ATNATX4X3PRIVGG-Lys(Abz), X4 = S, X3 = V.
T1 sequence: KATNATSVPRIVGGK

Data set [2] relates to T2, Lys(Dnp)-ATNATX4X3PRIVGG-Lys(Abz), X4 = S, X3 = I.
T2 sequence: KATNATSIPRIVGGK

Data set [3] relates to T3, Lys(Dnp)-ATNATX4X3PRIVGG-Lys(Abz), X4 = D, X3 = G.
T3 sequence: KATNATDGPRIVGGK

Data set [4] concerns T4, Lys(Dnp)-ATNATX4X3PRIVGG-Lys(Abz), X4 = D, X3 = Y.
T4 sequence: KATNATDYPRIVGGK

Data set [5] has as its system T5, Lys(Dnp)-ATNATX4X3PRIVGG-Lys(Abz), X4 = S, X3 = A.
T5 sequence: KATNATSAPRIVGGK

The subject of data set [6] is T6, Lys(Dnp)-ATNATX4X3PRIVGG-Lys(Abz), X4 = S, X3 = G.
T6 sequence: KATNATSGPRIVGGK

Data set [7] has as its system T7, Lys(Dnp)-ATNATX4X3PRIVGG-Lys(Abz), X4 = S, X3 = Q.
T7 sequence: KATNATSQPRIVGGK

For Human plasma purified Factor Xa, the FXa kcat/KM amounted to 38 M⁻¹ s⁻¹ in data set [1]; 55 M⁻¹ s⁻¹ in data set [2]; 5.8 M⁻¹ s⁻¹ in data set [3]; 11 M⁻¹ s⁻¹ in data set [4]; 19 M⁻¹ s⁻¹ in data set [5]; 24 M⁻¹ s⁻¹ in data set [6]. This substance also returned an FXa kcat/KM in data set [7] of 45 M⁻¹ s⁻¹.
